Assay results as given in paper PMC12024540, “Peptide-Based Regulation of TNF-α-Mediated Cytotoxicity” (Biomolecules, 2025).

Tested on: caspase-3 and caspase-7 activities in L929 cells
Experiment: Caspase-Glo 3/7 apoptosis assay on TNF-α-stimulated L929 cells
Assay type: cell-based, mouse
Details: at 10 nM and 100 nM with TNF-α 1 ng/mL
Method: Apoptosis was detected by measuring caspase-3 and caspase-7 activities with the Promega Caspase-Glo 3/7 Assay Kit. A total of 1.5 × 10^4 cells were seeded onto opaque 96-well tissue culture plates. After 24 ± 2 h of incubation, cells were stimulated with the same concentration of actinomycin D and TNF-α with different peptide concentrations. After 4 h of incubation in 5% CO2 at 37 °C, freshly prepared caspase 3/7 reagent was added to each well, followed by incubation for 1 h at room temperature. Luminescence was measured using a plate reader (CLARIOstar Plus, BMG Labtech, Ortenberg, Germany). Fold change was calculated from the ratio of luminescence of cell control to that of TNF-α-treated cells.

B1: TNFR1: Human TNFR1 (soluble) recombinant protein applied with TNF-α in the caspase 3/7 assay (protein)
chain: SVCPQGKYIHPQNNSICCTKCHKGTYLYNDCPGPGQDTDCRECESGSFTASENHLRHCLSCSKCRKEMGQVEISSCTVDRDTVCGCRKNQYRHYWSENLFQCFNCSLCLNGTVHLSCQEKQNTVCTCHAGFFLRENECVS
modifications: fluorescent label from the Monolith Protein Labeling Kit RED-NHS 2nd Generation (labelled target in MST)
notes: Human TNFR1 (soluble) recombinant protein applied with TNF-α in the caspase 3/7 assay
In the case of B1, the “effect on caspase 3/7 activity” value is reported as “significantly reduced caspase 3/7 activity”.
